Legend:
[1] = target: Venus-iLID-CaaX; experiment: light-induced recruitment of a cytosolic prey to a plasma membrane bait (live-cell spinning disk microscopy); HeLa cells; 1 pulse of 440 nm laser light at 20% for 1 s; change in cytosolic intensity of the prey in percent, measured 20 s after stimulation
[2] = target: Lck-mTurquoise2-iLID; experiment: as above
[3] = target: Venus-iLID-CaaX; experiment: light-induced recruitment of a cytosolic prey to a plasma membrane bait (live-cell confocal microscopy); HeLa cells, 37°C; photo-activation with 488 nm laser light (1% intensity) every 2.5 s for 2 min; normalized membrane to cytosol intensity ratio of the prey; t½ ON and OFF from a mono-exponential fit to the mean

mean change in cytosolic intensity (recruitment efficiency) [1]: 25.5%
median change in cytosolic intensity (recruitment efficiency) [2]: 36.7%
t½ OFF of recruitment (after 488 nm light) [3]: 20.3 s
t½ ON of recruitment (488 nm light) [3]: 5.14 s
Substance: SspB-mScarlet-I (from UniProt P0AFZ3 1-165) (natural protein)

— paper PMC10393062
